Assay results from US20170157212.

System: purified recombinant CRIF1

HA-tagged full-length human CDK12
CDK12-mediated phosphorylation of the human GST-CTD substrate in vitro (immunoblot, CTD-Ser2P): recombinant CRIF1 potently inhibited CDK12-mediated phosphorylation of the human GST-CTD substrate in vitro, in a dose-dependent manner
S65 and T70 phosphorylation of recombinant 4E-BP1 in vitro (reactions with CDK12 and mTORC1/Raptor): rCRIF1 potently and selectively inhibited S65 and T70 phosphorylation of 4E-BP1 in vitro, in a dose-dependent manner, without affecting phosphorylation of the T37/46 sites by mTORC1
